{"source": "paper PMC3203579", "binders": {"B1": {"name": "poly(A) 80 nt (ssRNA)", "RNA": "AAAAAAAAAAAAAAAAAAAAAAAAAAAAAAAAAAAAAAAAAAAAAAAAAAAAAAAAAAAAAAAAAAAAAAAAAAAAAAAA"}}, "molecular_target": "T1, AtFib2 (Arabidopsis thaliana, UniProt Q94AH9 1-320)", "T1 sequence": "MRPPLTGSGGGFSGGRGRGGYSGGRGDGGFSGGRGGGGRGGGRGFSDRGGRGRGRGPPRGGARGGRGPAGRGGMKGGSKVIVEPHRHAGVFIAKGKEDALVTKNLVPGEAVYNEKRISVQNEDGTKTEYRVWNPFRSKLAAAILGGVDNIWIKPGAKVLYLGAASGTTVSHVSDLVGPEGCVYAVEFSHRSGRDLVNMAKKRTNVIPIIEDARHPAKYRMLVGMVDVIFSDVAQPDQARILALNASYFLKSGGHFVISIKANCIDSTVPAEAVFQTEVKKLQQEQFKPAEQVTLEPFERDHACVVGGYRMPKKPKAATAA", "assay": "EMSA", "data": [{"binder": "B1", "values": [{"measurement": "Kd", "value": 190, "unit": "nM"}]}]}
